This assay addresses human high affinity Fc gamma receptor, Fc gamma RI (human) (UniProt P12314). Description: enzymatic cell-binding assay.
Chain of UniProt P12314 (P12314 16-374): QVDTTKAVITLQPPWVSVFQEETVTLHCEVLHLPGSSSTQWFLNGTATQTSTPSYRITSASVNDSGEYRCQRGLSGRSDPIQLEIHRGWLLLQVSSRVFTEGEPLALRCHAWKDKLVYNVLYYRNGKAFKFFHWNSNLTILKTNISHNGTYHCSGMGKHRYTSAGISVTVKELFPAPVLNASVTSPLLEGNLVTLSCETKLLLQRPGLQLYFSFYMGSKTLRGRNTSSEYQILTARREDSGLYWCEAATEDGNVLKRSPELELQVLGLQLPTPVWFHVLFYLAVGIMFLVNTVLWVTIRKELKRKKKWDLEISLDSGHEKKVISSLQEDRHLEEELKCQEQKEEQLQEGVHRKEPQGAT

For the substance “CH1-deleted chimeric anti-dansyl IgG3 (IgG3 ΔCH1) (antibody)”, the Ka amounted to 2e+08 M⁻¹. “chimeric anti-dansyl IgG3 (murine variable regions, human IgG3 constant region, human kappa light chain) (antibody)” yielded a Ka of 1.2e+09 M⁻¹. The same measure, in the same setting: in the case of “chimeric anti-dansyl IgG3 bearing a hinge encoded by the first (unique) gamma 3 hinge exon (IgG3h1) (antibody)” it was 2.2e+08 M⁻¹. Same read-out and setting: the figure for “chimeric anti-dansyl IgG3(Ser[331]) (antibody)” is 3.1e+08 M⁻¹. With “chimeric anti-dansyl IgG4 (murine variable regions, human IgG4 constant region, human kappa light chain) (antibody)”, the fold reduction in binding activity relative to IgG1 and IgG3 was 10 fold. For the substance “chimeric anti-dansyl IgG4(Leu[234]) (antibody)”, the Ka is 3.8e+08 M⁻¹. For the substance “chimeric anti-dansyl IgG4(Leu[234], Pro[331]) (antibody)”, the Ka amounted to 1.3e+08 M⁻¹. In turn, “exon-exchange chimeric anti-dansyl IgG 2232 (IgG2 with a gamma 3 CH2 domain) (antibody)” yielded a Ka of 2.8e+08 M⁻¹.

Substance “exon-exchange chimeric anti-dansyl IgG 3332 (IgG3 bearing the CH3 domain of IgG2) (antibody)” came in with a Ka of 1.8e+09 M⁻¹.

Values taken from publication PMC2190830.
